Test results published in the supplement of paper PMC10126150.
± gives the standard deviation of the averaged measurements.

system: ATP; assay: switch fluorescence ratio, 500 uM ATP over buffer (Cy3 cluster intensity, sum of 5 cycles each) (fold (ratio)); higher = stronger signal-on switching upon ATP binding; sequences stand for … in TCGTCGGCAGCGTCAGATGTGTATAAGAGACAGTTTTTTTTTTTTTTTTTTTTTTTTT…TC; settings: aptamer strand: ATP DNA aptamer (quencher-CACCTGGGGGAGTATTGCGGAGGAAGG + anchor), 100 nM annealed; ATP concentration: 500 uM
Method in brief: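 Clusters carrying Cy3-labelled switching strands on a modified Illumina MiSeq flow-cell were annealed to 100 nM quencher-labelled ATP aptamer and imaged in selection buffer. They were imaged again after 15 min with 500 uM ATP at 22 °C, over five buffer/ATP cycles with NaOH stripping and re-annealing in between. For each cluster, the fluorescence ratio is the summed Cy3 intensity of the target cycles divided by that of the buffer cycles, averaged per switch-domain sequence. Clusters outside 100-1000 RFU were left out.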
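Also: ATP exposure 15 min at 22 °C before imaging.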

Going from TTCTTGGTCT to TATTTGCTGT, the switch fluorescence ratio falls from 1.009 ± 0.0067 to 1.001 ± 0.001.

GGAATTAGTG and TCCCTTTAGT are within error of each other in switch fluorescence ratio: 0.995 ± 0.025 for the first, 1.01 ± 0.024 for the second.

CATTGCAGAT and AAGTTGTGCG are within error of each other in switch fluorescence ratio: 0.981 ± 0.037 for the first, 0.986 ± 0.029 for the second.

First: TATTTGAAGT
Second: GTAGTGCAAT
The switch fluorescence ratio of the first is lower: 0.9885 ± 0.0028 for the first, 1.1 ± 0.018 for the second.

Compared with GCACGCCTGG, CTTTGAGC is lower in switch fluorescence ratio: 1.0842 ± 0.00097 for the first, 1 ± 0.064 for the second.

CGTCTCGAAC and GTTATTTTAG are within error of each other in switch fluorescence ratio: 1 ± 0.014 for the first, 0.988 ± 0.037 for the second.

CCATATCTAT and GAAATAGATC are within error of each other in switch fluorescence ratio: 1 ± 0.029 for the first, 0.953 ± 0.07 for the second.

TATTGTGTTC and ACTATTCGGC are within error of each other in switch fluorescence ratio: 0.9965 ± 0.0035 for the first, 0.982 ± 0.02 for the second.

AGCGTGGTGG and AATGGGGGTT are within error of each other in switch fluorescence ratio: 0.958 ± 0.033 for the first, 1.02 ± 0.037 for the second.

First: TTTATTCGTT
Second: TTGGGGTACG
The switch fluorescence ratio of the first is lower: 0.9784 ± 0.0063 for the first, 1.01 ± 0.021 for the second.

TATTTTGCGG and AGGGATATAT are within error of each other in switch fluorescence ratio: 0.987 ± 0.035 for the first, 0.98 ± 0.011 for the second.

GGGGTTTTTC and CGGAAATAAA are within error of each other in switch fluorescence ratio: 0.9786 ± 0.0085 for the first, 0.968 ± 0.025 for the second.

AAGTGGTAAG and GGAGGGGTCG are within error of each other in switch fluorescence ratio: 0.996 ± 0.034 for the first, 1.02 ± 0.033 for the second.

CTGTGGGGCG and TGGATAAGGA are within error of each other in switch fluorescence ratio: 1.01 ± 0.045 for the first, 0.983 ± 0.013 for the second.

First: AGGGGGCTGG
Second: TGTACTGGGC
The switch fluorescence ratio of the first is lower: 0.977 ± 0.018 for the first, 1.06 ± 0.049 for the second.

Compared with GCCTAGTTGT, TCAAGGCGAT is higher in switch fluorescence ratio: 0.977 ± 0.028 for the first, 1.09 ± 0.042 for the second.

TTAGAAGGTA and GTTAGTGTTT are within error of each other in switch fluorescence ratio: 0.995 ± 0.035 for the first, 1.01 ± 0.013 for the second.

GTGGCACTGT and GGTTGGCTCG are within error of each other in switch fluorescence ratio: 0.989 ± 0.019 for the first, 1 ± 0.025 for the second.

Compared with CAATCTGTTA, AAGAATGTG is lower in switch fluorescence ratio: 0.989 ± 0.027 for the first, 0.9474 ± 0.0022 for the second.

TCTGGTTGTG and CATTGGTGGC are within error of each other in switch fluorescence ratio: 1.01 ± 0.016 for the first, 0.992 ± 0.1 for the second.

TTTCGCTTTT and GGGCGGGGAT are within error of each other in switch fluorescence ratio: 1.03 ± 0.044 for the first, 1.01 ± 0.018 for the second.

TTGTATGGGA and ATCATTGCTG are within error of each other in switch fluorescence ratio: 1.001 ± 0.0069 for the first, 0.949 ± 0.056 for the second.

CGTTGAGTAT and TTTTTAGATC are within error of each other in switch fluorescence ratio: 0.981 ± 0.019 for the first, 1.004 ± 0.0088 for the second.

ACTAGGTATG and ATTCATCGCT are within error of each other in switch fluorescence ratio: 1.01 ± 0.032 for the first, 1.0258 ± 0.00018 for the second.

First: CTTCTAGCTT
Second: TTTGGGCAGC
The switch fluorescence ratio of the first is lower: 0.97 ± 0.058 for the first, 1.083 ± 0.0087 for the second.

GCTTAGGTCA and CATATTTGGG are within error of each other in switch fluorescence ratio: 0.982 ± 0.034 for the first, 0.981 ± 0.081 for the second.

CCACTTGCTA and GGATGGGTTG are within error of each other in switch fluorescence ratio: 1.16 ± 0.037 for the first, 1.09 ± 0.19 for the second.

ATAGAAGAG and TTGTGCTATT are within error of each other in switch fluorescence ratio: 0.978 ± 0.017 for the first, 1.26 ± 0.32 for the second.

GGCGGGGGGA and GCCTTTTGCT are within error of each other in switch fluorescence ratio: 1.01 ± 0.032 for the first, 0.988 ± 0.018 for the second.

TTGAGCCTCC and TTTTCCTGCG are within error of each other in switch fluorescence ratio: 1.2 ± 0.15 for the first, 1.65 ± 0.64 for the second.

GGTTTGCGGC and AGAGATGCTT are within error of each other in switch fluorescence ratio: 0.994 ± 0.036 for the first, 0.99 ± 0.032 for the second.

TTGTGTTGGC and GTTGGATTAG are within error of each other in switch fluorescence ratio: 1.02 ± 0.038 for the first, 0.993 ± 0.017 for the second.

AGTAGGGCGA and AAGACGTGGA are within error of each other in switch fluorescence ratio: 1 ± 0.092 for the first, 0.9993 ± 0.0064 for the second.

TCAGGACGGG and AGCGTATGGG are within error of each other in switch fluorescence ratio: 0.992 ± 0.02 for the first, 0.983 ± 0.035 for the second.

TTAGGGGGAG and AGAGGGAAGA are within error of each other in switch fluorescence ratio: 1.03 ± 0.065 for the first, 1.01 ± 0.037 for the second.

First: GCTATTGTGT
Second: TTAAGAACAA
The switch fluorescence ratio of the first is lower: 0.9858 ± 0.0036 for the first, 1.02 ± 0.03 for the second.

Going from GTGTGCCTGG to AACCATTGCT, the switch fluorescence ratio rises from 0.985 ± 0.055 to 1.048 ± 0.0053.

GCGAGGGTTC and CGAATTTTAT are within error of each other in switch fluorescence ratio: 0.991 ± 0.029 for the first, 0.976 ± 0.039 for the second.

ATATTTTAGT and ATTTATCCTC are within error of each other in switch fluorescence ratio: 1.03 ± 0.031 for the first, 1.05 ± 0.029 for the second.

AGGTTAAAAC and GCTAGAGACG are within error of each other in switch fluorescence ratio: 1.2 ± 0.19 for the first, 1.06 ± 0.054 for the second.

GAAGGTTGCG and GTGACCGTGT are within error of each other in switch fluorescence ratio: 1.03 ± 0.056 for the first, 1 ± 0.053 for the second.

Going from AAGATTGTGT to TAACGCGGAC, the switch fluorescence ratio rises from 0.9849 ± 0.0017 to 2.5233 ± 3.9e-05.

GCGAATTGGG and CGGGGCACAG are within error of each other in switch fluorescence ratio: 1.02 ± 0.024 for the first, 1.005 ± 0.0014 for the second.

AAGACTTAT and TTTTAGAGCT are within error of each other in switch fluorescence ratio: 1.01 ± 0.053 for the first, 1.02 ± 0.018 for the second.

TTGGTTTTT and CATTTCAGGA are within error of each other in switch fluorescence ratio: 0.993 ± 0.019 for the first, 1.004 ± 0.0027 for the second.

GTTATGCGCC and GGTATGTGTG are within error of each other in switch fluorescence ratio: 1.02 ± 0.028 for the first, 1.03 ± 0.024 for the second.

CTTTTAATGG and ACGAGGTTGT are within error of each other in switch fluorescence ratio: 1.03 ± 0.068 for the first, 0.982 ± 0.025 for the second.

TCAATTTTTA and TTATGGGGTG are within error of each other in switch fluorescence ratio: 1.02 ± 0.02 for the first, 1.01 ± 0.027 for the second.

CGATTGGTGT and GCTAGTTTTT are within error of each other in switch fluorescence ratio: 1.02 ± 0.021 for the first, 1 ± 0.022 for the second.

GCTATATCTA and GGTCTAATCT are within error of each other in switch fluorescence ratio: 1.02 ± 0.022 for the first, 1.04 ± 0.015 for the second.
